One block for each binder: values may come before it.
Legend:
[1] = target: T1, human LRRC33-proTGFβ1 complex (human, UniProt Q86YC3 19-650; P01137 30-390, limits assumed); assay: SPR Biacore; Fab
T1 construct: Purified recombinant, biotinylated antigen complex; also called hLRRC33-proTGFβ1; LLC
Procedure: (§1) Surface plasmon resonance (SPR) was used to measure binding kinetics using a BIACORE® system. […] Experiments were carried out with eight types of LLCs, namely, hLTBP1-proTGFβ1, mLTBP1-proTGFβ1, hLTBP3-proTGFβ1, mLTBP3-proTGFβ1, hGARP-proTGFβ1, mGARP-proTGFβ1, hLRRC33-proTGFβ1 and mLRRC33-proTGFβ1.
(§2) A BIACORE® system was employed to determine the monovalent binding affinity and the kinetic parameters for antigen binding of test antibodies. The binding kinetics were evaluated by surface plasmon resonance using Biacore 8K (GE Healthcare). A Biotin CAP sensor chip was used to capture the biotinylated antigens. […] Multi-cycle kinetics was employed where each analyte concentration was injected in a separate cycle and the sensor chip surface was regenerated after each cycle. All the assays were carried out in freshly prepared 1× HBS-EP+ buffer (10 mM HEPES, 150 mM NaCl, 3 mM EDTA, 0.05% Tween20, pH 7.4). Data for all the analyte concentrations for each interaction were fit globally to a 1:1 binding model to obtain the kinetic parameters. The Sensorgram for 0 nM analyte concentration was used as reference.

[2] = target: T2, murine LRRC33-proTGFβ1 complex (mouse; human, UniProt Q8BMT4 20-651, limits assumed); assay: SPR Biacore; Fab
T2 construct: As for m5; also called mLRRC33-proTGFβ1; LLC
T2 sequence (Q8BMT4 20-651 limits assumed, chain 1 of 2): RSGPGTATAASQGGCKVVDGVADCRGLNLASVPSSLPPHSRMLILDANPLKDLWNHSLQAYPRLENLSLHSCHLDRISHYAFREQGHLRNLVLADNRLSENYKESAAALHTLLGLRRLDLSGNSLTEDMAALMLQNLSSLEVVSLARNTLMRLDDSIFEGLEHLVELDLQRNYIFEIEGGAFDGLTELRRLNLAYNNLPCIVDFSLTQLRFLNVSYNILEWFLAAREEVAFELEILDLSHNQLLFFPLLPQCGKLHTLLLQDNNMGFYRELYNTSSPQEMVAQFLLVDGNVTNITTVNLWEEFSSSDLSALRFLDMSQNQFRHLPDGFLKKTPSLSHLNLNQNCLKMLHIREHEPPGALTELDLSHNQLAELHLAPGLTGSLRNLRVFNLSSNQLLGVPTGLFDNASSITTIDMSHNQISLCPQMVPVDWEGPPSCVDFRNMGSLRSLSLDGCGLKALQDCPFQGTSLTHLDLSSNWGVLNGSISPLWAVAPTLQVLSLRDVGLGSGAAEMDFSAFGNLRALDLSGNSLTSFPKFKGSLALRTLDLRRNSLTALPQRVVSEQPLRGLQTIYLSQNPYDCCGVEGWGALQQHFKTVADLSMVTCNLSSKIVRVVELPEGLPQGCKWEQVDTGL
T2 sequence (chain, as listed by the source limits assumed, chain 2 of 2): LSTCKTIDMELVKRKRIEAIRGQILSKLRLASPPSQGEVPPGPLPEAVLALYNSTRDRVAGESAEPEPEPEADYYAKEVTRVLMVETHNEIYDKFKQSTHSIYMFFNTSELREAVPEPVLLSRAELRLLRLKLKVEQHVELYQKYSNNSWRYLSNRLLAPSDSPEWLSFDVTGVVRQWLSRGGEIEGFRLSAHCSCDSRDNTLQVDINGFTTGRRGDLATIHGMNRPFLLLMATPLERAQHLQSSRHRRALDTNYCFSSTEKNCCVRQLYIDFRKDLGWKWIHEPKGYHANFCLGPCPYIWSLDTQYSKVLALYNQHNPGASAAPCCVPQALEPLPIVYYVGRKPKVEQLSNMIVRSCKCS
Procedure: as §1, §2

[3] = target: T3, murine LTBP1-proTGFβ1 complex (mouse; human, UniProt Q8CG19 339-1712; P01137 30-390, limits assumed); assay: ELISA, purified hIgG4 titrated from about 0.002 to 100 nM, readout RLU, panel mLTBP1-TGFb1
T3 construct: also called mLTBP1-proTGFβ1; LLC
T3 sequence (Q8CG19 339-1712 limits assumed, chain 1 of 2): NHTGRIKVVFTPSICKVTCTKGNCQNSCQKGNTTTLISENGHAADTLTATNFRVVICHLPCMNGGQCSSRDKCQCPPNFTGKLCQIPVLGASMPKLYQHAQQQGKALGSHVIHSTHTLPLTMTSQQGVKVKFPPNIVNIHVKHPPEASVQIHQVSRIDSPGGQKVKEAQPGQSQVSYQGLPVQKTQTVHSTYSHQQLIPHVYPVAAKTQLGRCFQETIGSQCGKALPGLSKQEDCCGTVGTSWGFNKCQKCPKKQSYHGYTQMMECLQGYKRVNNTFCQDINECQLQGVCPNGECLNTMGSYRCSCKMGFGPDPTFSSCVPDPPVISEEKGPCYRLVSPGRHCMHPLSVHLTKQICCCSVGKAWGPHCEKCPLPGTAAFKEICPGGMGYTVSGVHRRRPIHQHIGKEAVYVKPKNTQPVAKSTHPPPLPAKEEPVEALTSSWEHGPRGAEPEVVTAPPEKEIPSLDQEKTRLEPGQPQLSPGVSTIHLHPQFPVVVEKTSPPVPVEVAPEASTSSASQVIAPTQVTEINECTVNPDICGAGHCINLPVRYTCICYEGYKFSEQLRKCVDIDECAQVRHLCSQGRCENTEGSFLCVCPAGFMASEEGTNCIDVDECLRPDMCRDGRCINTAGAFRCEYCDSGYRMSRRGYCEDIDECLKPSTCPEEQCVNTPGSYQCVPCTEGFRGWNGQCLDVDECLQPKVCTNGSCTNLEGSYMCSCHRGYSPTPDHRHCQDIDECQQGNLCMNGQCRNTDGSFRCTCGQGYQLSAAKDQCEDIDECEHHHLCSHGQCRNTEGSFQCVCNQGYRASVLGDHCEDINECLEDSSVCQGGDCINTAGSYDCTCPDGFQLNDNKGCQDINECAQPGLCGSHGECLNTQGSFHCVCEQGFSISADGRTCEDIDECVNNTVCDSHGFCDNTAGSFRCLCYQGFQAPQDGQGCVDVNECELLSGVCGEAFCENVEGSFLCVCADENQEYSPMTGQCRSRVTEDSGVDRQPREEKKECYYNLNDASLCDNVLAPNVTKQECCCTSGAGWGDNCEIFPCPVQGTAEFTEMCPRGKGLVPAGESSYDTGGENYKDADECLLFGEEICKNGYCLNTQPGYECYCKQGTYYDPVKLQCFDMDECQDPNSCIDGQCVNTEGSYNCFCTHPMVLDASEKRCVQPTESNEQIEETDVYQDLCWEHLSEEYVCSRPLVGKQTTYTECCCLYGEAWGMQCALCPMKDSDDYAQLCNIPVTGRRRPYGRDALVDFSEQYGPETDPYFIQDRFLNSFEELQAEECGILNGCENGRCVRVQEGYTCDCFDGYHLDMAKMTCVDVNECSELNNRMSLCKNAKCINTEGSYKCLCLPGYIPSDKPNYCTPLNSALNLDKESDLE
T3 sequence (P01137 30-390 limits assumed, chain 2 of 2): as the sequence (chain, as listed by the source limits assumed, chain 2 of 2) above

[4] = target: T4, human LTBP1-proTGFβ1 complex (human, UniProt Q14766 347-1721; P01137 30-390, limits assumed); assay: ELISA, purified hIgG4 titrated from about 0.002 to 100 nM, readout RLU, panel hLTBP1-TGFb1
T4 construct: also called hLTBP1-proTGFβ1; large latent complex (LLC)
T4 sequence (Q14766 347-1721 limits assumed, chain 1 of 2): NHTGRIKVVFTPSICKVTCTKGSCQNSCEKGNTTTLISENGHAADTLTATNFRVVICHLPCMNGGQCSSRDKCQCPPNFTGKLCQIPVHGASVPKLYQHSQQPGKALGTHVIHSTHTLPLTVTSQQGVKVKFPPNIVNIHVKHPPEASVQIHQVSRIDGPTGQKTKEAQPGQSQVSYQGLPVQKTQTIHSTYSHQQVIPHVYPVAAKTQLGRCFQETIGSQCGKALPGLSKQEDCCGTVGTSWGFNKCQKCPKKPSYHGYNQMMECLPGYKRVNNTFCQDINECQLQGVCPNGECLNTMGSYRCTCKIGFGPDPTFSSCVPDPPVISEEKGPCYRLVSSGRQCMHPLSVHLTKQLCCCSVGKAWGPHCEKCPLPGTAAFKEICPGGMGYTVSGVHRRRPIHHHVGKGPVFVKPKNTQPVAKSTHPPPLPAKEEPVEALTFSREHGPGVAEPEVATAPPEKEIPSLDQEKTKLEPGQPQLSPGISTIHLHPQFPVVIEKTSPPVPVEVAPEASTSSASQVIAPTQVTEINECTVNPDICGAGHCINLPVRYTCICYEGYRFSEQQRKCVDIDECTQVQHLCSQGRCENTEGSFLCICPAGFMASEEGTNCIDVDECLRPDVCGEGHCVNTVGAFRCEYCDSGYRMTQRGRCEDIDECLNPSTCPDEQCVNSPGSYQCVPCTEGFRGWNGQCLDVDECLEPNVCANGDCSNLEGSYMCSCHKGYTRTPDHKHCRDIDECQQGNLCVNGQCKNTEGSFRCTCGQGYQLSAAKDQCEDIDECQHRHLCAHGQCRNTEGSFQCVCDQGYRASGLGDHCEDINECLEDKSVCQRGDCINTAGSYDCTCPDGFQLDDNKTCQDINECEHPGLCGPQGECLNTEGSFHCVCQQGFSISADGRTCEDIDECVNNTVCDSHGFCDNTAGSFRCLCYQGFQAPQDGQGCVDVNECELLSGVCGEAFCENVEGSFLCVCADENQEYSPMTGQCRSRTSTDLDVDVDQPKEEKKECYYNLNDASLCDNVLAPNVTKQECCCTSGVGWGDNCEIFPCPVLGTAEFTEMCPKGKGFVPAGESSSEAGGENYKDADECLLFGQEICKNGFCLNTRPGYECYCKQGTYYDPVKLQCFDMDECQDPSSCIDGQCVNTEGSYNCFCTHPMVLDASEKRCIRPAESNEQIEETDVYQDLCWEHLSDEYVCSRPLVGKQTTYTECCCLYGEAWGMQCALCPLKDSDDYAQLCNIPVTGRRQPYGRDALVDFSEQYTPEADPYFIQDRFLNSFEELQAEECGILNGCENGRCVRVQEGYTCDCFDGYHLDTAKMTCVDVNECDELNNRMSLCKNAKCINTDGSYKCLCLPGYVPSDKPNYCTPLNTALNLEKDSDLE
T4 sequence (P01137 30-390 limits assumed, chain 2 of 2): as the sequence (chain, as listed by the source limits assumed, chain 2 of 2) above

[5] = target: T5, murine LTBP3-proTGFβ1 complex (mouse; human, UniProt Q61810 41-1245; P01137 30-390, limits assumed); assay: ELISA, purified hIgG4 titrated from about 0.002 to 100 nM, readout RLU, panel mLTBP3-TGFb1
T5 construct: also called mLTBP3-proTGFβ1; LLC

[6] = target: T6, human GARP-proTGFβ1 complex (human, UniProt Q14392 18-627; P01137 30-390, limits assumed); assay: ELISA, purified hIgG4 titrated from about 0.002 to 100 nM, readout RLU, panel hGARP-TGFb1
T6 construct: Purified recombinant, biotinylated antigen complex; also called hGARP-proTGFβ1; LLC

[7] = target: T7, human LTBP3-proTGFβ1 complex (human, UniProt Q9NS15 44-1303; P01137 30-390, limits assumed); assay: ELISA, purified hIgG4 titrated from about 0.002 to 100 nM, readout RLU, panel hLTBP3-TGFb1
T7 construct: Purified recombinant, biotinylated antigen complex; also called hLTBP3-proTGFβ1; LLC

[8] = target: endogenous LTBP-proTGFβ1 of LN229 cells (human); assay: cell-based or functional assay
Sequence of endogenous LTBP-proTGFβ1 of LN229 cells (human) (P01137 30-390): as the sequence (chain, as listed by the source limits assumed, chain 2 of 2) above

[9] = target: T8, murine GARP-proTGFβ1 complex (mouse; human, UniProt G3XA59 18-628; P01137 30-390, limits assumed); assay: ELISA, purified hIgG4 titrated from about 0.002 to 100 nM, readout RLU, panel mGARP-TGFb1
T8 construct: As for m5; also called mGARP-proTGFβ1; LLC

[10] = target: T5, murine LTBP3-proTGFβ1 complex; assay: SPR Biacore; Fab
Procedure: as §1, §2

[11] = target: T4, human LTBP1-proTGFβ1 complex; assay: SPR Biacore; Fab
Procedure: as §1, §2

[12] = target: T7, human LTBP3-proTGFβ1 complex; assay: SPR Biacore; Fab
Procedure: as §1, §2

[13] = target: T6, human GARP-proTGFβ1 complex; assay: SPR Biacore; Fab
Procedure: as §1, §2

[14] = target: T3, murine LTBP1-proTGFβ1 complex; assay: SPR Biacore; Fab
Procedure: as §1, §2

[15] = target: T8, murine GARP-proTGFβ1 complex; assay: SPR Biacore; Fab
Procedure: as §1, §2

[16] = target: T4, human LTBP1-proTGFβ1 complex; assay: SPR (Biacore), binding to Human LTBP1-ProTGFβ1, Fab at 0.625-10 nM
Procedure: as §2
Binding kinetics was evaluated by surface plasmon resonance using a BIACORE® 8K (GE) instrument. Biotinylated antigens were captured on a Biotin CAP chip and the Fab fragments of the antibodies were used as analytes. Sensorgrams for Fab binding at variable concentrations (0.6-10 nM) were globally fit to obtain the kinetic parameters.

T1 sequence (Q86YC3 19-650 limits assumed, chain 1 of 2): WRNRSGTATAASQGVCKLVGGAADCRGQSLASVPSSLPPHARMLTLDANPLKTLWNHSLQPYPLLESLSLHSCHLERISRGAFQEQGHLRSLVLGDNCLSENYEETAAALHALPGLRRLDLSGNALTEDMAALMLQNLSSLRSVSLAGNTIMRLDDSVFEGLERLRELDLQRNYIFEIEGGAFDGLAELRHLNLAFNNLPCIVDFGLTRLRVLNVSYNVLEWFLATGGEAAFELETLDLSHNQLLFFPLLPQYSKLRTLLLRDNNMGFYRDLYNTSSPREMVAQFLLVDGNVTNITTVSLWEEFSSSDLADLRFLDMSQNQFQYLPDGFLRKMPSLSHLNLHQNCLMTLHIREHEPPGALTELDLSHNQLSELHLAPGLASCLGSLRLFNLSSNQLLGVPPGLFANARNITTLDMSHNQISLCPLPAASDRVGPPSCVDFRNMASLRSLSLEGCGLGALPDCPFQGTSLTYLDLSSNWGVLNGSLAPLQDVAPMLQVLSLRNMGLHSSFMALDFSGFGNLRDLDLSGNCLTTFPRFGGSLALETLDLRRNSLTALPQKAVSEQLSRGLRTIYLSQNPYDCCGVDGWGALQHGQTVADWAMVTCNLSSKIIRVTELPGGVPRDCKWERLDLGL
T1 sequence (P01137 30-390 limits assumed, chain 2 of 2): as the sequence (chain, as listed by the source limits assumed, chain 2 of 2) above

Fold difference (affinity relative to Ref) [1]: 81 fold | Kd [1]: 0.123 nM | koff [1]: 0.000123 s⁻¹ | kon [1]: 1e+06 M⁻¹ s⁻¹ | Fold difference (affinity relative to Ref) [2]: 74 fold | Kd [2]: 0.114 nM | koff [2]: 0.000123 s⁻¹ | kon [2]: 1.08e+06 M⁻¹ s⁻¹
B1: Ab42 Fab (Fab, V domains shown)
VH: QVQLVESGGGVVQPGRSLRLSCAASGFTFRSYVMHWVRQAPGKGLEWVAVISHEGSLKYYADSVKGRFTISRDNSKNTLYLQMNSLRAEDTAVYYCARPRIAARRGGFGYWGQGTLVTVSS
VL: NFMLTQPHSVSESPGKTVTISCTRSSGNIDNNYVQWYQQRPGSSPTTVIYEDNQRPSGVPDRFSGSIDSSSNSASLTISGLKTEDEADYYCQSYDYDTQGVVFGGGTKLTVL

EC50 (read off the curve) [3]: ~0.2 nM | EC50 (read off the curve) [4]: ~0.3 nM | EC50 (read off the curve) [5]: ~0.2 nM | EC50 (read off the curve) [6]: ~0.3 nM | EC50 (read off the curve) [7]: ~0.2 nM | mAb IC50 (nM); cell-based potency assay [8]: 0.95 nM | EC50 (read off the curve) [9]: ~0.2 nM
B2: Ab46 hIgG4 (antibody, V domains shown)
VH: EVQLLESGGGLVQPGGSLRLSCAASGFTFADYAMTWVRQAPGKGLEWVSAISGSGAATYFADSVKGRFTISRDNSKNTLYLQMNSLRAEDTAVYYCARVSSGHWDYDYWGQGTLVTVSS
VL: DIQLTQSPSSLSASVGDRVTITCRASQSISSYLNWYQQKPGKAPKLLIYAASGLESGVPSRFSGSGSGTDFTLTISSLQPEDFATYYCQQTYGVPLTFGGGTKVEIK
notes: hIgG4 immunoglobulin; also called Ab46 (mAb)

Fold difference (affinity relative to Ref) [10]: 91 fold | Fold difference (affinity relative to Ref) [11]: 134 fold | Fold difference (affinity relative to Ref) [1]: 118 fold | Fold difference (affinity relative to Ref) [2]: 95 fold | Fold difference (affinity relative to Ref) [12]: 72 fold | Fold difference (affinity relative to Ref) [13]: 53 fold | Fold difference (affinity relative to Ref) [14]: 123 fold | Fold difference (affinity relative to Ref) [15]: 69 fold | fAb IC50 (nM); cell-based potency assay [8]: 0.723 nM | t1/2 [16]: 131 min
B3: Ab46 Fab (Fab, V domains shown)
VH: EVQLLESGGGLVQPGGSLRLSCAASGFTFADYAMTWVRQAPGKGLEWVSAISGSGAATYFADSVKGRFTISRDNSKNTLYLQMNSLRAEDTAVYYCARVSSGHWDYDYWGQGTLVTVSS
VL: DIQLTQSPSSLSASVGDRVTITCRASQSISSYLNWYQQKPGKAPKLLIYAASGLESGVPSRFSGSGSGTDFTLTISSLQPEDFATYYCQQTYGVPLTFGGGTKVEIK
notes: Fab fragment

Reference: patent US20230057012A1 (SCHOLAR ROCK, published 2023)
